Series [1] has as its target T1, Cagβ1 (soluble region of Cagβ, residues 166-748) (Helicobacter pylori 26695, UniProt O25260 166-748).
T1 construct: Cagβ (HP0524, Cag5; VirD4 homolog) of Helicobacter pylori 26695, residues 166-748, soluble region without the transmembrane region; also called Cagβ1(166-748); Cagβ-WT; source: E. coli BL21 star (DE3), purified (Ni-NTA, TEV, second Ni-NTA, SEC); not shown: His6, N-terminal, cleaved; TrxA, N-terminal, cleaved
T1 sequence: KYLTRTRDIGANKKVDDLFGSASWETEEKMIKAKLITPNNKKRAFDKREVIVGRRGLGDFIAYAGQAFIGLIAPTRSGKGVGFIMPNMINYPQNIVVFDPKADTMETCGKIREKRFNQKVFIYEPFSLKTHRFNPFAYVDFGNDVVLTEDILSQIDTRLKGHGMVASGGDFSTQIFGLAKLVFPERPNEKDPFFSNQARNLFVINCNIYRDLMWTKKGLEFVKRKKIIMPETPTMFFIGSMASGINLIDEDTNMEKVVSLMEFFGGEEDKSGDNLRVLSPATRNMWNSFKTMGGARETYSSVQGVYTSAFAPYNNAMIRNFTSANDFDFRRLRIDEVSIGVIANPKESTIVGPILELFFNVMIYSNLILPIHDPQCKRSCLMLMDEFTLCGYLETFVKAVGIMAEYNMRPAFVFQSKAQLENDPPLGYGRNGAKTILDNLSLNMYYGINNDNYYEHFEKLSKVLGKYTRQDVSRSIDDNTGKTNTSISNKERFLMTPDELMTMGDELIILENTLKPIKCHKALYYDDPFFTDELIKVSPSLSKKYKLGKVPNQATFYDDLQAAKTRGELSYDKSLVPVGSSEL
Kind of series: ITC; ITC-200, 25 °C, 20 mM Tris pH 8.0, 150 mM NaCl; Cagβ proteins (20 µM) in the cell, CagZ proteins (200 µM) in the syringe. The following applies: both partners purified. (In general: ITC needs no label: the signal is the heat of the interaction.)

The target in series [2] is T2, Cagβ2 (residues 243-748) (Helicobacter pylori 26695, UniProt O25260 243-748).
T2 construct: Cagβ (HP0524, Cag5) of Helicobacter pylori 26695, residues 243-748; also called Cagβ2 (243-748); source: E. coli BL21 star (DE3), purified (Ni-NTA, TEV, second Ni-NTA, SEC); not shown: His6, N-terminal, cleaved; TrxA, N-terminal, cleaved
T2 sequence: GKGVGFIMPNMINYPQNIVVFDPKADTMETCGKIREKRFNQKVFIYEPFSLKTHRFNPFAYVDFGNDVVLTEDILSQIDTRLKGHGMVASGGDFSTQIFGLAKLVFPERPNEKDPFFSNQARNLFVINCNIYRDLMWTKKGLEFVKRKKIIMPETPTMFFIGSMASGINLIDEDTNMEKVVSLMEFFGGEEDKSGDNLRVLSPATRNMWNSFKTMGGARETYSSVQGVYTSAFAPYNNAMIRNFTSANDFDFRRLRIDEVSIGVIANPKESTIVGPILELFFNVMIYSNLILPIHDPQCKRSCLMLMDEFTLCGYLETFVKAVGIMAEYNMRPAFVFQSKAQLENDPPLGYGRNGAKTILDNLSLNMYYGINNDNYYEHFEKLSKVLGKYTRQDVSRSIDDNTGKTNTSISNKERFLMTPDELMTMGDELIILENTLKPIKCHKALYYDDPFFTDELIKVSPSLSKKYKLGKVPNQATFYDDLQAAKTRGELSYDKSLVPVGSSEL
Described as above. The note with it: both partners purified.

The target of series [3] is T3, Cagβ-AAD2 (residues 289-505) (Helicobacter pylori 26695, UniProt O25260 289-505).
T3 construct: Cagβ (HP0524, Cag5) of Helicobacter pylori 26695, residues 289-505, holds the all-alpha domain (AAD); also called Cagβ-AAD2 (289-505); source: E. coli BL21 star (DE3), purified (Ni-NTA, TEV, second Ni-NTA, SEC); not shown: His6, N-terminal, cleaved; TrxA, N-terminal, cleaved
T3 sequence: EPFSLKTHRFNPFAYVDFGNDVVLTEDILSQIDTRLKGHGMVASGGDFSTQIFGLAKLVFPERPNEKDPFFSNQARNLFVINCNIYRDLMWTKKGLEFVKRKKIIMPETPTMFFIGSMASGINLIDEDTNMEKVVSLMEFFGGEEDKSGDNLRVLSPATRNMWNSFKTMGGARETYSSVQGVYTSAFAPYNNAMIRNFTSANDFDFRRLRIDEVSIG
Described as above. The following applies: both partners purified.

Series [4] deals with T4, Cagβ-AAD1 (residues 289-488) E396A (Helicobacter pylori 26695, UniProt O25260 289-488, E396A).
T4 construct: Cagβ (HP0524, Cag5) of Helicobacter pylori 26695, residues 289-488, with E396A; also called Cagβ-AAD1_E396A; source: E. coli BL21 star (DE3), purified as the wild type but without TEV protease treatment; not shown: His6, N-terminal, kept; TrxA, N-terminal, kept
T4 sequence: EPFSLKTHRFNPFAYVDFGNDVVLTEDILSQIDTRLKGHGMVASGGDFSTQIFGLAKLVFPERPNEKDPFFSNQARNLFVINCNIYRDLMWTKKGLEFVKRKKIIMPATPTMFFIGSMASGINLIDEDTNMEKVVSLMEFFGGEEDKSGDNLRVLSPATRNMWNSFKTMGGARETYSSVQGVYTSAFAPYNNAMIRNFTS
Described as above. The note with it: both partners purified.

Series [5] concerns the molecule itself. Briefly: crystal structure; apo-Cagβ1, 2.8 Å; crystals from 35% PEG400, 0.2 M Li2SO4, 0.1 M Tris 8.5 at 285 K; six protomers in the asymmetric unit.

B1: CagZ (residues 2-199), wild type (natural protein)
chain: ELGFNETERQKILDSNKSLMGNANEVRDKFIQNYASSLKDSNDPQDFLRRVQELRINMQKNFISFDVYYNYLNNLVLASYNRCKQEKTFAESTIKNELTLGEFVAEISDNFNNFMCDEVARISDLVASYLPREYLPPFIDGNMMGVAFQILGIDDFGRKLNEIVQDIGTKYIILSKNKTYLTSLERAKLITQLKLNLE
notes: CagZ of Helicobacter pylori 26695, residues 2-199; also called CagZ-WT; source: E. coli BL21 star (DE3), purified (Ni-NTA, TEV, second Ni-NTA, SEC); not shown: His6, N-terminal, cleaved; TrxA, N-terminal, cleaved
By Kd is commonly meant the free concentration of one partner at which half of the binding sites on the other are occupied at equilibrium, for simple one-to-one binding. Read a high Kd as a looser complex. On to B1, for which the Kd is 50 nM in series [1], 20 nM in series [2], 20 nM in series [3] and around 50 nM in series [4].

B2: Cagβ1 (soluble region of Cagβ, residues 166–748) (domain or fragment)
chain: T1 sequence
notes: Cagβ (HP0524, Cag5; VirD4 homolog) of H. pylori 26695, residues 166-748, the soluble (cytosolic) region; Dynamic hexamer; monomer at low concentration; also called apo-Cagβ1; HP0524; source: E. coli BL21 star (DE3), purified (Ni-NTA, TEV cleavage, second Ni-NTA, SEC); also co-expressed with CagZ-pET-28a and co-purified; not shown: His6, N-terminal, cleaved; TrxA, N-terminal, cleaved
Broadly, the stoichiometry N is a count of units in the complex or per binding partner. As to B2, the “stoichiometry N” value in series [5] was 6.

The values above are taken from article PMC9886983, “Mechanism of regulation of the Helicobacter pylori Cagβ ATPase by CagZ” (Nature Communications, 2023).
